Each block holds one substance with its values, some of them ahead of it.
Tests used:
[1] = biological target: LFA-1 leucine zipper fusion protein (soluble CD11a/CD18) (UniProt P20701); test: ELISA as printed: αd/CD18 and immobilized CD11a/CD18
immobilized CD11b/CD18 = immobilized CD11b/CD18 (UniProt P05107); test: ELISA as printed: αd/CD18 and immobilized CD11b/CD18
[2] = biological target: soluble ICAM-R/IgG1 fusion protein (UniProt P32942); test: ELISA, soluble integrin supernatant on immobilized ICAM-R/Ig, non-blocking antibody detection
soluble ICAM-R/IgG1 fusion protein, sequence (P32942 30-485 limits assumed): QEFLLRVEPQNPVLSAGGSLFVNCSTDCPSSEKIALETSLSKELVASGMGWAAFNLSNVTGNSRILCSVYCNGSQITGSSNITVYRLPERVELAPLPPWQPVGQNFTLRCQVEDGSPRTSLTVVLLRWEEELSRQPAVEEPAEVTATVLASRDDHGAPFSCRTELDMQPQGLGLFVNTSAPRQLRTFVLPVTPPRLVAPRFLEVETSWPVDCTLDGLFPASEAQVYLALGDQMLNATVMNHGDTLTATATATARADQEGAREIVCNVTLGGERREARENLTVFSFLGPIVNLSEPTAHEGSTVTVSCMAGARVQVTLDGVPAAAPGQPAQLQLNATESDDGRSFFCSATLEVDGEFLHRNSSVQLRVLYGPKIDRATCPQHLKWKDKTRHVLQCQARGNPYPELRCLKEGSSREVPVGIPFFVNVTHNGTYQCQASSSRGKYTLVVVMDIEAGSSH

[3] = biological target: two domain VCAM-1/Fc with substitution at residue 40 (UniProt P19320); test: adhesion of αdβ2 CHO cells to immobilized mutant VCAM-1/Fc
two domain VCAM-1/Fc with substitution at residue 40, sequence (P19320 25-220): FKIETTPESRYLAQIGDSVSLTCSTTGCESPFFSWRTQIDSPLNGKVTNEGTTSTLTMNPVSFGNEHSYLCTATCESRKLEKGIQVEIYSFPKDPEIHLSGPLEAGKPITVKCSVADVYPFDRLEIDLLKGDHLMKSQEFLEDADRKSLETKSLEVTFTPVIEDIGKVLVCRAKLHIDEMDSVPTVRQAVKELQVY

[4] = biological target: recombinant VCAM-1 (commercial preparation, R & D Systems), immobilized (UniProt P19320); test: cell-based or functional assay
recombinant VCAM-1 (commercial preparation, R & D Systems), immobilized, sequence (P19320 25-698 limits assumed): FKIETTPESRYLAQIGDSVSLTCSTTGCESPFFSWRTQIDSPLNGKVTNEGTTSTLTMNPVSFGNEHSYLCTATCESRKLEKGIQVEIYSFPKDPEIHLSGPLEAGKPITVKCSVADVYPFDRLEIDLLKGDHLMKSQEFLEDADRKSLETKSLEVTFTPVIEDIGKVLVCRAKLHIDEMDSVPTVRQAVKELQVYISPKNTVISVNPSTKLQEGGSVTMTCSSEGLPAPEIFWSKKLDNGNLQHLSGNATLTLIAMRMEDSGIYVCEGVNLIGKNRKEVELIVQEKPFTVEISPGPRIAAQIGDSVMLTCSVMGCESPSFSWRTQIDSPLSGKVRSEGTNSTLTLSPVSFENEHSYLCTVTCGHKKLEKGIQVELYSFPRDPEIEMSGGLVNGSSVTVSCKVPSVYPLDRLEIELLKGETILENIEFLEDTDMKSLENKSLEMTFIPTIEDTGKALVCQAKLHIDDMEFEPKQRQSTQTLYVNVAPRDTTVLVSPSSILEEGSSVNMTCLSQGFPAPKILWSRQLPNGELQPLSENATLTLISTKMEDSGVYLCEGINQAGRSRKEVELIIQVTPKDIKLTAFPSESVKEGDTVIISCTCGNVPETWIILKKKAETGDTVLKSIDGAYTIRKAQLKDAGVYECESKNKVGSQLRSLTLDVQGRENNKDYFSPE

fold greater than background binding [1]: 5 fold
fold greater than background binding (immobilized CD11b/CD18): 15 fold
fold greater than control well [2]: 10 fold
Substance: soluble human αd/CD18 leucine zipper heterodimer (from UniProt P05107 23-700) (receptor)

binding relative to wild-type VCAM-1 [3]: 50%
Substance: human αd/CD18 heterodimer expressed on transfected cells (COS, CHO, JY) (from UniProt P05107 23-769) (receptor)

binding rate of IL-5 cultured eosinophils to immobilized VCAM-1 in the presence of a monoclonal antibody against α4 [4]: 18.1%
Substance: α4 integrins on human eosinophils (from UniProt P13612 34-1032; P05556 21-798) (receptor)

Source: patent US20020062008A1
